From article PMC4282423

Molecular target: T1, BldD (His-tagged) (Streptomyces coelicolor) (UniProt Q7AKQ8)
T1 sequence: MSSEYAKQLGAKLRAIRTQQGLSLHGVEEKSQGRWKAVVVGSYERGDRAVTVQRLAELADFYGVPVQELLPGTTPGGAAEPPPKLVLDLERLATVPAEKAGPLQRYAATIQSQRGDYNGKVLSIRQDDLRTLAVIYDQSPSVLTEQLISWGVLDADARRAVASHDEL
Assay: DNase I footprinting
Details: EMSA and extract footprinting: 25 mM HEPES pH 7.5, 4 mM DTT, 1 mM ATP, 10 mM Mg-acetate, 4% glycerol, 1 ug poly(dI-dC), 30 C, 20 min; purified BldD …

Sequence: GTGCAGGCCGTCAGCAGCAGGGCGGAGGCGCCCAGGGCACCGACCACGGCCAGCGAACGCAAGGGGGGAAGTCGTCGTGCAGAGCTCATGATGCTGTCCGTAACCGCTCCGTCACGCAGACACACCGGACCGGTATGAAAATCACCCTATTGGCCGGGGTGGGGCGACGTCCCGTGGGCGGCGGGACCGGGAGCCTTCAG (double strand) [sspA promoter footprint probe (7434_F1/7434_R1)]
- binding: binds
